Laboratory results from patent US7666989B2 (priority 2003, dated 2010).
Values joined by “and” are separate entries in the source; they are usually repeats but may differ in a detail not shown here. Equal values may be shown once. “Also recorded” adds a separate entry of the source. Read-outs that look alike come from different tables or passages of the source. Marks after values point to notes of the source that are not given here.

How the values were obtained:
[1] = system: COLO 205 (human colon cancer cell); assay: MTT cytotoxicity, COLO 205; assay type: cell-based; conditions: 4 days
From the text: (§1) Reagents: RPMI1640 is from GIBCO; MTT is from Bebco. Fetal bovine serum is purchased from Hangzhou SiJiQing Bioengineering Material Co. Ltd. (P. R. China).
(§2) Cell lines: COLO 205 (human colon cancer cell), NCI-H460 (human lung cancer cell), RPMI 8226 (human multiple myeloma cell), U251 (human brain glioma cell) are from ATCC, USA. HL-60 (human promyelocytic leukemia cell), MDA-MB-231, MDA-MB-435 (human breast cancer cell), SCLC (human small-cell lung cancer cell), H125 (human lung cancer cell) and PC-3 (human […] cancer cell).
(§3) The well-grown tumor cells were collected to prepare a cell suspension (1×10^4/ml) with RPMI 1640 medium containing 10% fetal bovine serum. The cell suspension was inoculated into a 96-well plate, 100 μL (containing 1000 tumor cells) per well. The plate was cultured in a 5% CO2 incubator at 37° C. for 24 hours, followed by addition of medicament.
(§4) A blank control and a positive control using 5-fluorouracil or adriamycin are employed in the experiment. […]
(§5) The supernatant was discarded. […] After gently shaking, the OD values were measured by a BIORAD 550 enzyme analyzer, with the detection wavelength being 540 nm and the reference wavelength being 450 nm.
(§6) Dose-response curves were generated by plotting with the cell inhibition rates and different concentrations of medicament, and the half inhibitory concentrations (IC50) were calculated.

[2] = system: PC-3 (human pancreas cancer cell); assay: MTT cytotoxicity, PC-3; assay type: cell-based; conditions: 4 days
From the text: as §1, §2, §3, §4, §5, §6

[3] = system: H125 (human lung cancer cell); assay: MTT cytotoxicity, H125; assay type: cell-based; conditions: 4 days
From the text: as §1, §2, §3, §4, §5, §6

[4] = system: RPMI 8226 (human multiple myeloma cell); assay: MTT cytotoxicity, RPMI 8226; assay type: cell-based; conditions: 4 days
From the text: as §1, §2, §3, §4, §5, §6

[5] = system: SCLC (human small-cell lung cancer cell); assay: MTT cytotoxicity, SCLC; assay type: cell-based
From the text: as §1, §2, §3
A blank control and a positive control using 5-fluorouracil or adriamycin are employed in the experiment. The CPT samples have five concentrations, three parallel wells for each concentration. The cells were cultured in an incubator with 5% CO2 at 37° C. for 4 days. Then the culture medium was removed and 100 μL MTT solution (0.4 mg/ml in RPMI 1640) was added to each well. The plate was incubated at 37° C. for four additional hours.
The supernatant was discarded. 150 μl DMSO was added into each well in order to solubilize Fomazan granulates. After gently shaking, the OD values were measured by a BIORAD 550 enzyme analyzer, with the detection wavelength being 540 nm and the reference wavelength being 450 nm.
as §6

[6] = system: human colon cancer COLO 205; conditions: COLO 205 xenograft; for Body Weight (g) End / RTV / Tumor volume (mm^3) End / Tumor weight / Body Weight (g) Start / Tumor volume (mm^3) Start / Inhibition rate (%): 15 injections; for Body Weight (g) Start / Tumor volume (mm^3) Start: baseline; for Inhibition rate (%): by tumor weight
From the text: In this example, the animals used were BALB/c-nu nude mice, 6-8 weeks old. For each experiment, all animals were of the same sex.
Tumor cell lines: human brain glioma U251, human lung cancer cell line NCI-H460, human colon cancer cell line COLO205 were inoculated from in vitro culture into nude mice subcutaneously, the tumors were subcultured and kept.
Experimental Procedures: well-grown nude mice carrying well-grown tumors were selected and sacrificed by disjointing neck vertebra. The tumors were removed aseptically and were cut into pieces having a diameter of 2-3 mm by a scalpel. The pieces were inoculated into the axilla of nude mice subcutaneously by a needle. […] The length and width of tumors were measured by a vernier caliper. The animals were then grouped based their tumor sizes. Each group included seven to eight animals.
The length, width of the tumor and the body weight of the mice were measured twice per week. The tumor volume (TV) and relative tumor volume (RTV) were calculated. A graph indicating the changes of tumor size was plotted. At the end of this experiment, the tumors were taken out and weighed after the mice were sacrificed, and the inhibition rates of the medicament on tumor growth were calculated.
The formula for calculating tumor volume (TV) is: length×width^2÷2.
The formula for calculating relative tumor volume (RTV) is: Vt/Vo (wherein Vo is the TV value measured when the administration is started, Vt is the TV value measured after that).
T-test was used to determine the statistical difference of tumor weights, tumor volumes and RTV etc. between different groups of animal. The index used for evaluating the anti-tumor activity is the relative tumor growth rate T/C (%), the formula for which is: […]
The evaluation standard for efficacy:
T/C (%)>60 is ineffective;
T/C (%)≦60 and P<0.05 after statistical analysis is effective.
Injectable hydroxycamptothecin (trade name: Xi Su, Wuhan Lishizhen Pharmaceuticals Inc., Huangshi Lishizhen Pharmaceuticals Group, P. R. China) was used as positive control, administered by intraperitoneal injection at the dose of 1 mg/kg, once per day. The administration was terminated after 15 consecutive days of administration. […] A single administration of 80 mg/kg hydroxycamptothecin was further given after two weeks. CPT was given to three treatment groups at the doses of 1.7 mg/kg, 5.0 mg/kg, 15.0 mg/kg respectively by intraperitoneal injection, once per day. The treatment contained a total of 15 injections.

cancer cells = assay: Induction of apoptosis of cancer cells compared with wild type TRAIL; assay type: cell-based; conditions: CPT versus wild type TRAIL
[7] = CPT 1.7 mg/kg i.p. once per day
[8] = CPT 5.0 mg/kg i.p. once per day

B1: CPT: human recombinant circularly permuted TRAIL (CPT), which consists of 166 amino acid residues; SEQ ID No:2 (protein)
chain: TLSSPNSKNEKALGRKINSWESSRSGHSFLSNLHLRNGELVIHEKGFYYIYSQTYFRFQEEIKENTKNDKQMVQYIYKYTSYPDPILLMKSARNSCWSKDAEYGLYSIYQGGIFELKENDRIFVSVTNEHLIDMDHEASFFGAFLVGGGGGGVAAHITGTRGRSNT
modifications: Synthetically generated peptide
IC50 [1]: 0.006 ± 0 µg/mL | IC50 [2]: 0.067 ± 0.002 µg/mL | IC50 [3]: 0.085 ± 0.006 µg/mL | IC50 [4]: 0.824 ± 0.093 µg/mL | IC50 ([5]; 4 days): 10 ± 0 µg/mL | inhibitory effect on the growth of SCLC cell ([5]; in words): some inhibitory effect; also recorded: some inhibition effect | Body Weight (g) End [6, 7]: 20.6 ± 3.0 g | RTV [6, 7]: 1.62 ± 0.62 | Tumor volume (mm^3) End [6, 7]: 582 ± 408** mm^3 | Tumor weight [6, 7]: 0.40 ± 0.33 g | Body Weight (g) Start [6, 7]: 20.6 ± 1.1 g | Tumor volume (mm^3) Start [6, 7]: 205 ± 47 mm^3 | Inhibition rate (%) [6, 7]: 79.6% | Body Weight (g) End [6, 8]: 21.4 ± 1.2 g | RTV [6, 8]: 0.91 ± 0.35 | Tumor volume (mm^3) End [6, 8]: 314 ± 175** mm^3 | Tumor weight [6, 8]: 0.18 ± 0.15 g | Body Weight (g) Start [6, 8]: 20.2 ± 0.8 g | Tumor volume (mm^3) Start [6, 8]: 180 ± 63 mm^3 | Inhibition rate (%) [6, 8]: 90.8% and 90.9% | Body Weight (g) End ([6]; CPT 15 mg/kg i.p. once per day): 21.1 ± 2.4 g | RTV ([6]; CPT 15 mg/kg i.p. once per day): 0.33 ± 0.27 | Tumor volume (mm^3) End ([6]; CPT 15 mg/kg i.p. once per day): 52 ± 53** mm^3 | Tumor weight ([6]; CPT 15 mg/kg i.p. once per day): 0.05 ± 0.05 g | Body Weight (g) Start ([6]; CPT 15 mg/kg i.p. once per day): 20.0 ± 0.5 g | Tumor volume (mm^3) Start ([6]; CPT 15 mg/kg i.p. once per day): 192 ± 81 mm^3 | Inhibition rate (%) ([6]; CPT 15 mg/kg i.p. once per day): 97.4% and 97.8% | fraction of animals in which no tumor was found ([6]; high-dose CPT (15 mg/kg/day, 15 injections), four weeks after the administration was stopped): ⅓ | activity to induce apoptosis of cancer cells relative to wild type TRAIL (cancer cells): six to eleven times as strong
